Patent US20250339531A1, “DUX4 POLYPEPTIDES AND NUCLEIC ACIDS FOR TREATING INFLAMMATORY AND AUTOIMMUNE CONDITIONS” (Fred Hutchinson Cancer Center, priority 2021, published 2025)

B1: RRBP1 (protein)
chain: MDIYDTQTLGVVVFGGFMVVSAIGIFLVSTFSMKETSYEEALANQRKEMAKTHHQKVEKKKKEKTVEKKGKTKKKEEKPNGKIPDHDPAPNVTVLLREPVRAPAVAVAPTPVQPPIIVAPVATVPAMPQEKLASSPKDKKKKEKKVAKVEPAVSSVVNSIQVLTSKAAILETAPKEVPMVVVPPVGAKGNTPATGTTQGKKAEGTQNQSKKAEGAPNQGRKAEGTPNQGKKTEGTPNQGKKAEGTPNQGKKAEGTPNQGKKAEGAQNQGKKVDTTPNQGKKVEGAPTQGRKAEGAQNQAKKVEGAQNQGKKAEGAQNQGKKGEGAQNQGKKAEGAQNQGKKAEGAQNQGKKAEGAQNQGKKAEGAQNQGKKAEGAQNQGKKAEGAQNQGKKVEGAQNQGKKAEGAQNQGKKAEGAQNQGKKAEGAQNQGKKAEGAQNQGKKAEGAQNQGKKAEGAQNQGKKAEGAQNQGKKVEGAQNQGKKAEGAQNQGKKAEGAQNQGKKAEGAQNQGQKGEGAQNQGKKTEGAQGKKAERSPNQGKKGEGAPIQGKKADSVANQGTKVEGITNQGKKAEGSPSEGKKAEGSPNQGKKADAAANQGKKTESASVQGRNTDVAQSPEAPKQEAPAKKKSGSKKKGEPGPPDADGPLYLPYKTLVSTVGSMVFNEGEAQRLIEILSEKAGIIQDTWHKATQKGDPVAILKRQLEEKEKLLATEQEDAAVAKSKLRELNKEMAAEKAKAAAGEAKVKKQLVAREQEITAVQARMQASYREHVKEVQQLQGKIRTLQEQLENGPNTQLARLQQENSILRDALNQATSQVESKQNAELAKLRQELSKVSKELVEKSEAVRQDEQQRKALEAKAAAFEKQVLQLQASHRESEEALQKRLDEVSRELCHTQSSHASLRADAEKAQEQQQQMAELHSKLQSSEAEVRSKCEELSGLHGQLQEARAENSQLTERIRSIEALLEAGQARDAQDVQASQAEADQQQTRLKELESQVSGLEKEAIELREAVEQQKVKNNDLREKNWKAMEALATAEQACKEKLLSLTQAKEESEKQLCLIEAQTMEALLALLPELSVLAQQNYTEWLQDLKEKGPTLLKHPPAPAEPSSDLASKLREAEETQSTLQAECDQYRSILAETEGMLRDLQKSVEEEEQVWRAKVGAAEEELQKSRVTVKHLEEIVEKLKGELESSDQVREHTSHLEAELEKHMAAASAECQNYAKEVAGLRQLLLESQSQLDAAKSEAQKQSDELALVRQQLSEMKSHVEDGDIAGAPASSPEAPPAEQDPVQLKTQLEWTEAILEDEQTQRQKLTAEFEEAQTSACRLQEELEKLRTAGPLESSETEEASQLKERLEKEKKLTSDLGRAATRLQELLKTTQEQLAREKDTVKKLQEQLEKAEDGSSSKEGTSV
B2: MYL12A (protein)
chain: MDLTTTMSSKRTKTKTKKRPQRATSNVFAMFDQSQIQEFKEAFNMIDQNRDGFIDKEDLHDMLASLGKNPTDEYLDAMMNEAPGPINFTMFLTMFGEKLNGTDPEDVIRNAFACFDEEATGTIQEDYLRELLTTMGDRFTDEEVDELYREAPIDKKGNFNYIEFTRILKHGAKDKDD
B3: EEF1A1 (protein)
chain: GKEKTHINIVVIGHVDSGKSTTTGHLIYKCGGIDKRTIEKFEKEAAEMGKGSFKYAWVLDKLKAERERGITIDISLWKFETSKYYVTIIDAPGHRDFIKNMITGTSQADCAVLIVAAGVGEFEAGISKNGQTREHALLAYTLGVKQLIVGVNKMDSTEPPYSQKRYEEIVKEVSTYIKKIGYNPDTVAFVPISGWNGDNMLEPSANMPWFKGWKVTRKDGNASGTTLLEALDCILPPTRPTDKPLRLPLQDVYKIGGIGTVPVGRVETGVLKPGMVVTFAPVNVTTEVKSVEMHHEALSEALPGDNVGFNVKNVSVKDVRRGNVAGDSKNDPPMEAAGFTAQVIILNHPGQISAGYAPVLDCHTAHIACKFAELKEKIDRRSGKKLEDGPKFLKSGDAAIVDMVPGKPMCVESFSDYPPLGRFAVRDMRQTVAVGVIKAVDKKAAGAGKVTKSAQKAQKAK
B4: EEF1D (protein)
chain: MEAPLGSILSPCPGRAATGRAGTGRVGTGLRPPAVLQLCPLLAFYRCVRKMRSGKASCTLETVWEDKHKYEEAERRFYEHEATQAAASAQQLPAEGPAMNGPGQDDPEDADEAEAPDGGSRRDPRKSQDSRKPLQKKRKRSPKSGLGPADLALLGLSAERVWLDKSLFDQAESSYRQKLADVAAQAAWPPALAPWGLCTHGNQVACHHVTWGIWVNKSSFDQAERAFVEWSQALLLAPDGSRRQGTPNTGQQVAVPDLAHQPSPPVNGQPPLGSLQALVREVWLEKPRYDAAERGFYEALFDGHPPGKVRLQERAGLAEGARRGRRDRRGRNILGNKRAGLRRADGEAPSALPYCYFLQKDAEAPWLSKPAYDSAECRHHAAEALRVAWCLEAASLSHRPGPRSGLSVSSLRPNRKMATNFLAHEKIWFDKFKYDDAERRFYEQMNGPVAGASRQENGASVILRDIARARENIQKSLAGSSGPGASSGTSGDHGELVVRIASLEVENQSLRGVVQELQQAISKLEARLNVLEKSSPGHRATAPQTQHVSPMRQVEPPAKKPATPAEDDEDDDIDLFGSDNEEEDKEAAQLREERLRQYAEKKAKKPALVAKSSILLDVKPWDDETDMAQLEACVRSIQLDGLVWGASKLVPVGYGIRKLQIQCVVEDDKVGTDLLEEEITKFEEHVQSVDIAAFNKI
B5: TUBB6 (protein)
chain: MREIVHIQAGQCGNQIGTKFWEVISDEHGIDPAGGYVGDSALQLERINVYYNESSSQKYVPRAALVDLEPGTMDSVRSGPFGQLFRPDNFIFGQTGAGNNWAKGHYTEGAELVDAVLDVVRKECEHCDCLQGFQLTHSLGGGTGSGMGTLLISKIREEFPDRIMNTFSVMPSPKVSDTVVEPYNATLSVHQLVENTDETYCIDNEALYDICFRTLKLTTPTYGDLNHLVSATMSGVTTSLRFPGQLNADLRKLAVNMVPFPRLHFFMPGFAPLTSRGSQQYRALTVPELTQQMFDARNMMAACDPRHGRYLTVATVFRGPMSMKEVDEQMLAIQSKNSSYFVEWIPNNVKVAVCDIPPRGLKMASTFIGNSTAIQELFKRISEQFSAMFRRKAFLHWFTGEGMDEMEFTEAESNMNDLVSEYQQYQDATANDGEEAFEDEEEEIDG
B6: HNRNPM (protein)
chain: AAGVEAAAEVAATEIKMEEESGAPGVPSGNGAPGPKGEGERPAQNEKRKEKNIKRGGNRFEPYANPTKRYRAFITNIPFDVKWQSLKDLVKEKVGEVTYVELLMDAEGKSRGCAVVEFKMEESMKKAAEVLNKHSLSGRPLKVKEDPDGEHARRAMQKVMATTGGMGMGPGGPGMITIPPSILNNPNIPNEIIHALQAGRLGSTVFVANLDYKVGWKKLKEVFSMAGVVVRADILEDKDGKSRGIGTVTFEQSIEAVQAISMFNGQLLFDRPMHVKMDERALPKGDFFPPERPQQLPHGLGGIGMGLGPGGQPIDANHLNKGIGMGNIGPAGMGMEGIGFGINKMGGMEGPFGGGMENMGRFGSGMNMGRINEILSNALKRGEIIAKQGGGGGGGSVPGIERMGPGIDRLGGAGMERMGAGLGHGMDRVGSEIERMGLVMDRMGSVERMGSGIERMGPLGLDHMASSIERMGQTMERIGSGVERMGAGMGFGLERMAAPIDRVGQTIERMGSGVERMGPAIERMGLSMERMVPAGMGAGLERMGPVMDRMATGLERMGANNLERMGLERMGANSLERMGLERMGANSLERMGPAMGPALGAGIERMGLAMGGGGGASFDRAIEMERGNFGGSFAGSFGGAGGHAPGVARKACQIFVRNLPFDFTWKMLKDKFNECGHVLYADIKMENGKSKGCGVVKFESPEVAERACRMMNGMKLSGREIDVRIDRNA
B7: KRT71 (protein)
chain: MSRQFTCKSGAAAKGGFSGCSAVLSGGSSSSFRAGSKGLSGGFGSRSLYSLGGVRSLNVASGSGKSGGYGFGRGRASGFAGSMFGSVALGPVCPTVCPPGGIHQVTVNESLLAPLNVELDPEIQKVRAQEREQIKALNNKFASFIDKVRFLEQQNQVLETKWELLQQLDLNNCKNNLEPILEGYISNLRKQLETLSGDRVRLDSELRNVRDVVEDYKKRYEEEINKRTAAENEFVLLKKDVDAAYANKVELQAKVESMDQEIKFFRCLFEAEITQIQSHISDMSVILSMDNNRNLDLDSIIDEVRTQYEEIALKSKAEAEALYQTKFQELQLAAGRHGDDLKNTKNEISELTRLIQRIRSEIENVKKQASNLETAIADAEQRGDNALKDARAKLDELEGALHQAKEELARMLREYQELMSLKLALDMEIATYRKLLESEECRMSGEFPSPVSISIISSTSGGSVYGFRPSMVSGGYVANSSNCISGVCSVRGGEGRSRGSANDYKDTLGKGSSLSAPSKKTSR

What follows are molecules tested on proteins that co-immunoprecipitated with DUX4-CTD constructs expressed in MB135 myoblasts (assay: LC-MS of proteins co-immunoprecipitated with DUX4-CTD (Table 1) and western validation). Conditions: LC-MS value per protein co-immunoprecipitated from MB135 myoblasts; + IFNG mix sample (no Dox); kind of count not given.
Assay type: binding, human
Set-up: key to 4. mL1dL2 + Dox + IFNG / 4. + IFNG mix / 4. longCTD + Dox + IFNG / 3. + IFNg + Dox longCTD / 3. + Dox longCTD / 3. + IFNG longCTD: peptide-spectrum matches (PSMs) per protein
Source text: As an unbiased method to identify proteins that interact with the C-terminal region of DUX4, liquid chromatography mass spectroscopy (LC-MS) was used to identify proteins that co-immunoprecipitated with DUX4-CTD constructs expressed in MB135 myoblasts. In the first experiment, MB135iDUX4-CTD cells were used, either untreated, treated with doxycycline alone, or with both doxycycline and IFNG. In the second experiment, MB135iDUX4-CTD and MB135iDUX4mL1dL2 cells were used, both treated with doxycycline and IFNG, compared to these two cell lines untreated and combined as a control. Proteins with a minimum of 2 peptide spectrum matches (PSMs) in at least one sample that were identified in both experiments were assigned to one of ten categories (see Methods) to separate candidate interactors from other categories that might be co-purified because of obligate interactions (e.g., proteasome or ribosome) or might be less likely to be physiologically relevant (e.g., cytoskeletal proteins). Candidate interactors were then ranked based on the total PSMs for that protein across all samples.
Centrifugation at 2500 rcf at 4° C. for 5 min pelleted the nuclei, supernatant was discarded, and nuclei resuspended in 1 mL IP buffer pH 7.4 (25 mM Tris-HCl pH 7.5, 175 mM NaCl, 1 mM EDTA, 0.2% NP-40, 5% glycerol) and incubated for 1 hour at 4° C. with rotation then spun at 21000 rcf for 10 minutes at 4° C. to pellet insoluble debris. Protein concentration was determined using the Pierce BCA Protein Assay Kit (ThermoFisher, 23225). An equivalent amount of protein per sample was pre-cleared with Dynabeads Protein G (Invitrogen) bound to mouse IgG (Abcam #131368) for 1 hour at 4° C. with rotation. FLAG-tagged constructs were then immunoprecipitated with Dynabeads Protein G beads coupled to mouse anti-FLAG M2 mAb (Sigma F3165) for 3 hours at 4° C. with rotation. Beads were washed 3× with 1 mL IP buffer and eluted by adding 2× NuPage LDS Sample Buffer (Thermo Fisher, diluted from 4× with PBS) to the beads and heating for 10 minutes at 70° C.
For LC-MS, anti-FLAG immunoprecipitation was performed with beads cross-linked to the anti-FLAG antibody and the proteins competitively eluted with FLAG peptide. Eluted protein samples were electrophoresed into a NuPage 4-12% Bis-Tris gel, excised, and processed by the Fred Hutchinson Cancer Research Center Proteomics Core. Samples were reduced, alkylated, digested with trypsin, desalted, and run on the Orbitrap Eclipse Tribid Mass Spectrometer (Thermo Fisher). Proteomics data were analyzed using Proteome Discoverer 2.4 against a Uniprot human database that included common contaminants using Sequest HT and Percolator for scoring. […] Proteins that were identified in at least one sample from both independent experiments with at least 2 PSMs in one sample were assigned to one of ten categories: 1, candidates; 2, cytoskeletal associated; 3, cytoskeletal; 4, ribosome/translation associated; 5, proteasome associated; 6, membrane or extracellular; ER, golgi, or vesicle associated; 8, lipid metabolism; 9, chaperones; 10, nuclear import or nuclear membrane associated. The proteins in category 1 were further investigated for interactions with DUX4.
With B1 the “4. + IFNG mix” value was 12.
For B2, the “4. + IFNG mix” value was 9.
In the case of B3, the “4. + IFNG mix” value is reported as 4.

Same assay, conditions: LC-MS value per protein co-immunoprecipitated with DUX4-CTD construct mL1dL2 in MB135 myoblasts; + Dox + IFNG; kind of count not given
B1 was tested, and the “4. mL1dL2 + Dox + IFNG” value was 4.
In the case of B4, the “4. mL1dL2 + Dox + IFNG” value is reported as 7.
In the case of B5, the “4. mL1dL2 + Dox + IFNG” value is reported as 23.
For B6, the “4. mL1dL2 + Dox + IFNG” value was 3.
With B2 the “4. mL1dL2 + Dox + IFNG” value was 30.
In the case of B3, the “4. mL1dL2 + Dox + IFNG” value is reported as 3.
In the case of B7, the “4. mL1dL2 + Dox + IFNG” value is reported as 21.
